The text below walks through data of patent US20170320919A1.

Test [1] deals with human polyclonal IgG (Gammanorm) (human). In words: SPR (Biacore), ligand amine-coupled to CM5 chip, 1 mg/ml IgG flowed; IgG binding signal left after 96 cycles of 100 mM NaOH, 10 min.
Test [2] has the same target. The experiment in a line: SPR (Biacore), retained IgG binding capacity after 96 NaOH cycles against reference Domain 3.
Test [3] shares this target. In words: SPR (Biacore), retained IgG binding capacity after 96 NaOH cycles against reference Protein L. On the technique in general: SPR reads the build-up and loss of mass on a sensor chip optically.
For test [4] the target is unchanged. The experiment in a line: SPR (Biacore), ligand amine-coupled to CM5 chip, 1 mg/ml IgG flowed; IgG binding signal left after 100 cycles of 100 mM NaOH, 10 min.
The target is the same in test [5]. The experiment in a line: SPR (Biacore), retained IgG binding capacity after 100 NaOH cycles against reference Protein L.
Test [6] has the same target. The experiment in a line: SPR (Biacore), retained IgG binding capacity after 96 NaOH cycles against reference Domain 3 (second series).
The target of test [7] is Purified Dab prepared from heat-treated E. coli supernatant. In words: column chromatography, ligand coupled to agarose beads at 8.8 mg/ml, 1 mg/ml Dab feed, residence time 4 min.
The target of test [8] is Purified Fab prepared from a papain-digested IgG mAb. The experiment in a line: column chromatography, ligand coupled to agarose beads at 8.8 mg/ml, 1 mg/ml Fab feed, residence time 4 min.
Test [9] has as its target human polyclonal IgG (Gammanorm) (human). The experiment in a line: SPR (Biacore), ligand amine-coupled to CM5 chip, 1 mg/ml IgG flowed; IgG binding signal left after 96 cycles of 100 mM NaOH, 10 min (second series, with the Q19 mutants).
Test [10] has as its target Purified Fab prepared from a papain-digested IgG mAb. The experiment in a line: column chromatography, ligand coupled to agarose beads at 11.0 mg/ml, 1 mg/ml Fab feed, residence time 4 min.
Test [11] deals with Purified Dab prepared from heat-treated E. coli supernatant. The experiment in a line: column chromatography, ligand coupled to agarose beads at 11.0 mg/ml, 1 mg/ml Dab feed, residence time 4 min.
The target in test [12] is Purified Fab prepared from a papain-digested IgG mAb. The experiment in a line: column chromatography, ligand coupled to agarose beads at 9.5 mg/ml, 1 mg/ml Fab feed, residence time 4 min.
For test [13], the target named is Purified Dab prepared from heat-treated E. coli supernatant. The experiment in a line: column chromatography, ligand coupled to agarose beads at 9.5 mg/ml, 1 mg/ml Dab feed, residence time 4 min.

B1: Domain 4 (D4) (protein)
chain: AQVPKEEVTIKANLIYADGKTQTAEFKGTFAEATAEAYRYADLLAKENGKYTADLEDGGYTINIRFAGKKVDEKPEEC
Consider B1, for which the Retained capacity after 96 cycles (%) in test [1] turned out to be 26%. The Sample/ref. ratio in [2] was 0.84.

B2: Domain 3 tetramer (designed binder)
chain: PKEEVTIKANLIYADGKTQTAEFKGTFEEATAEAYRYADLLAKENGKYTVDVADKGYTLNIKFAGKEKTPEEPKEEVTIKANLIYADGKTQTAEFKGTFEEATAEAYRYADLLAKENGKYTVDVADKGYTLNIKFAGKEKTPEEPKEEVTIKANLIYADGKTQTAEFKGTFEEATAEAYRYADLLAKENGKYTVDVADKGYTLNIKFAGKEKTPEEPKEEVTIKANLIYADGKTQTAEFKGTFEEATAEAYRYADLLAKENGKYTVDVADKGYTLNIKFAGKEKTPEE
B2 gave a Retained capacity after 96 cycles (%) in test [1] of 38%. Also, the Sample/ref. ratio in test [3] was 1.36.

B3: D3(N10Q, N45A, N60Q)4-cys (designed binder)
chain: PKEEVTIKAQLIYADGKTQTAEFKGTFEEATAEAYRYADLLAKEAGKYTVDVADKGYTLQIKFAGKEKTPEEPKEEVTIKAQLIYADGKTQTAEFKGTFEEATAEAYRYADLLAKEAGKYTVDVADKGYTLQIKFAGKEKTPEEPKEEVTIKAQLIYADGKTQTAEFKGTFEEATAEAYRYADLLAKEAGKYTVDVADKGYTLQIKFAGKEKTPEEPKEEVTIKAQLIYADGKTQTAEFKGTFEEATAEAYRYADLLAKEAGKYTVDVADKGYTLQIKFAGKEKTPEEC
On to B3, for which, in test [4], the Retained capacity after 100 cycles (%) was determined as 54%. In addition, the Sample/ref. ratio in [5] was 2.35.

B4: D3(N45A)1 (designed binder)
chain: PKEEVTIKANLIYADGKTQTAEFKGTFEEATAEAYRYADLLAKEAGKYTVDVADKGYTLNIKFAGKEKTPEE
Molecule B4 registered a Retained capacity after 96 cycles (%) in test [1] of 44%. Also, the Sample/ref. ratio in test [2] came out at 1.42.

B5: D3(N10Q, N45A, N60Q)1 (designed binder)
chain: PKEEVTIKAQLIYADGKTQTAEFKGTFEEATAEAYRYADLLAKEAGKYTVDVADKGYTLQIKFAGKEKTPEE
In turn, B5 came in with a Retained capacity after 96 cycles (%) in [1] of 59%. Also, the Sample/ref. ratio in test [2] is 1.9.

B6: D3(N10Q, N45A)1 (designed binder)
chain: PKEEVTIKAQLIYADGKTQTAEFKGTFEEATAEAYRYADLLAKEAGKYTVDVADKGYTLNIKFAGKEKTPEE
For B6, the Retained capacity after 96 cycles (%) in [1] is 48%. Besides, the Sample/ref. ratio in test [2] was found to be 1.55.

B7: D3(Q19E)1 (designed binder)
chain: PKEEVTIKANLIYADGKTETAEFKGTFEEATAEAYRYADLLAKENGKYTVDVADKGYTLNIKFAGKEKTPEE
Molecule B7 had a Retained capacity after 96 cycles (%) in [1] of 31%. In addition, the Sample/ref. ratio in [6] turned out to be 1.11.

B8: D3(Q19A)1 (designed binder)
chain: PKEEVTIKANLIYADGKTATAEFKGTFEEATAEAYRYADLLAKENGKYTVDVADKGYTLNIKFAGKEKTPEE
In the case of B8, the Retained capacity after 96 cycles (%) in [1] stood at 28%. Also, the Sample/ref. ratio in test [6] worked out at 1.

B9: D3(N45A, N60Q)1 (designed binder)
chain: PKEEVTIKANLIYADGKTQTAEFKGTFEEATAEAYRYADLLAKEAGKYTVDVADKGYTLQIKFAGKEKTPEE
B9 displayed a Retained capacity after 96 cycles (%) in test [1] of 59%. Besides, the Sample/ref. ratio in test [2] was 1.9.

B10: D3(N10Q, N45A, N60Q)2-cys (designed binder)
chain: PKEEVTIKAQLIYADGKTQTAEFKGTFEEATAEAYRYADLLAKEAGKYTVDVADKGYTLQIKFAGKEKTPEEPKEEVTIKAQLIYADGKTQTAEFKGTFEEATAEAYRYADLLAKEAGKYTVDVADKGYTLQIKFAGKEKTPEEC
Consider B10, for which the Retained capacity after 100 cycles (%) in [4] stood at 59%. Moreover, the Sample/ref. ratio in test [5] came to 2.56.

B11: D3(N10Q, N45A, N60Q)4 (designed binder)
chain: PKEEVTIKAQLIYADGKTQTAEFKGTFEEATAEAYRYADLLAKEAGKYTVDVADKGYTLQIKFAGKEKTPEEPKEEVTIKAQLIYADGKTQTAEFKGTFEEATAEAYRYADLLAKEAGKYTVDVADKGYTLQIKFAGKEKTPEEPKEEVTIKAQLIYADGKTQTAEFKGTFEEATAEAYRYADLLAKEAGKYTVDVADKGYTLQIKFAGKEKTPEEPKEEVTIKAQLIYADGKTQTAEFKGTFEEATAEAYRYADLLAKEAGKYTVDVADKGYTLQIKFAGKEKTPEE
Take B11: the QB10 Dab (dynamic binding capacity at 10% breakthrough) in [7] was found to be 15.9 mg/mL. Also, in test [4], the Retained capacity after 100 cycles (%) amounted to 60%. Further, the Sample/ref. ratio in test [5] turned out to be 2.61. The molecule further registered a QB10 Fab (dynamic binding capacity at 10% breakthrough) in test [8] of 19.3 mg/mL.

B12: Protein L (protein)
chain: AIHNRAKEETPETPETDSEEEVTIKANLIFANGSTQTAEFKGTFEKATSEAYAYADTLKKDNGEYTVDVADKGYTLNIKFAGKEKTPEEPKEEVTIKANLIYADGKTQTAEFKGTFEEATAEAYRYADALKKDNGEYTVDVADKGYTLNIKFAGKEKTPEEPKEEVTIKANLIYADGKTQTAEFKGTFEEATAEAYRYADLLAKENGKYTVDVADKGYTLNIKFAGKEKTPEEPKEEVTIKANLIYADGKTQTAEFKGTFAEATAEAYRYADLLAKENGKYTADLEDGGYTINIRFAGKKVDEKPEE
On to B12, for which the Retained capacity after 96 cycles (%) in [1] was 28%. In addition, in test [4], the Retained capacity after 100 cycles (%) was found to be 23%. The Sample/ref. ratio in test [3] and in [5] was 1 throughout.

B13: Domain 3 (D3) (protein)
chain: AQVPKEEVTIKANLIYADGKTQTAEFKGTFEEATAEAYRYADLLAKENGKYTVDVADKGYTLNIKFAGKEKTPEEC
With B13, the results for the Retained capacity after 96 cycles (%) in [1] and in test [9] were 31% and 28%, respectively. Also, the Sample/ref. ratio in test [6] and in [2] was 1 each time.

B14: Domain 2 (D2) (protein)
chain: AQVPKEEVTIKANLIYADGKTQTAEFKGTFEEAAAEAYRYADALKKDNGEYTVDVADKGYTLNIKFAGKEKTPEEC
In turn, B14 returned a Retained capacity after 96 cycles (%) in test [1] of 22%. Further, the Sample/ref. ratio in [2] came to 0.71.

B15: D3(N10Q, N45A, N60Q)6 (designed binder)
chain: PKEEVTIKAQLIYADGKTQTAEFKGTFEEATAEAYRYADLLAKEAGKYTVDVADKGYTLQIKFAGKEKTPEEPKEEVTIKAQLIYADGKTQTAEFKGTFEEATAEAYRYADLLAKEAGKYTVDVADKGYTLQIKFAGKEKTPEEPKEEVTIKAQLIYADGKTQTAEFKGTFEEATAEAYRYADLLAKEAGKYTVDVADKGYTLQIKFAGKEKTPEEPKEEVTIKAQLIYADGKTQTAEFKGTFEEATAEAYRYADLLAKEAGKYTVDVADKGYTLQIKFAGKEKTPEEPKEEVTIKAQLIYADGKTQTAEFKGTFEEATAEAYRYADLLAKEAGKYTVDVADKGYTLQIKFAGKEKTPEEPKEEVTIKAQLIYADGKTQTAEFKGTFEEATAEAYRYADLLAKEAGKYTVDVADKGYTLQIKFAGKEKTPEE
With B15, the Retained capacity after 100 cycles (%) in [4] was found to be 58%. The Sample/ref. ratio in test [5] turned out to be 2.52. This molecule also showed a QB10 Fab (dynamic binding capacity at 10% breakthrough) in [10] of 21.1 mg/mL. In addition, in test [11], the QB10 Dab (dynamic binding capacity at 10% breakthrough) turned out to be 16.7 mg/mL.

B16: D3(N10Q, N45A, N60Q)2 (designed binder)
chain: PKEEVTIKAQLIYADGKTQTAEFKGTFEEATAEAYRYADLLAKEAGKYTVDVADKGYTLQIKFAGKEKTPEEPKEEVTIKAQLIYADGKTQTAEFKGTFEEATAEAYRYADLLAKEAGKYTVDVADKGYTLQIKFAGKEKTPEE
With B16, the Retained capacity after 100 cycles (%) in [4] is 59%. For the same molecule, the Sample/ref. ratio in test [5] came to 2.56. Moreover, the QB10 Fab (dynamic binding capacity at 10% breakthrough) in test [12] was 19.3 mg/mL. Besides, the QB10 Dab (dynamic binding capacity at 10% breakthrough) in [13] worked out at 15.4 mg/mL.

B17: Domain 1 (D1) (protein)
chain: AQVSEEEVTIKANLIFANGSTQTAEFKGTFEKATSEAYAYADTLKKDNGEYTVDVADKGYTLNIKFAGKEKTPEEC
In test [1], B17 returned a Retained capacity after 96 cycles (%) of 13%. Further, the Sample/ref. ratio in test [2] amounted to 0.42.

B18: D3(N10Q, N45A, N60Q)6-cys (designed binder)
chain: PKEEVTIKAQLIYADGKTQTAEFKGTFEEATAEAYRYADLLAKEAGKYTVDVADKGYTLQIKFAGKEKTPEEPKEEVTIKAQLIYADGKTQTAEFKGTFEEATAEAYRYADLLAKEAGKYTVDVADKGYTLQIKFAGKEKTPEEPKEEVTIKAQLIYADGKTQTAEFKGTFEEATAEAYRYADLLAKEAGKYTVDVADKGYTLQIKFAGKEKTPEEPKEEVTIKAQLIYADGKTQTAEFKGTFEEATAEAYRYADLLAKEAGKYTVDVADKGYTLQIKFAGKEKTPEEPKEEVTIKAQLIYADGKTQTAEFKGTFEEATAEAYRYADLLAKEAGKYTVDVADKGYTLQIKFAGKEKTPEEPKEEVTIKAQLIYADGKTQTAEFKGTFEEATAEAYRYADLLAKEAGKYTVDVADKGYTLQIKFAGKEKTPEEC
Molecule B18 had a Retained capacity after 100 cycles (%) in test [4] of 56%. Moreover, the Sample/ref. ratio in [5] was determined as 2.43.
